PMC4652608, “The inhibition of human farnesyl pyrophosphate synthase by nitrogen-containing bisphosphonates. Elucidating the role of active site threonine 201 and tyrosine 204 residues using enzyme mutants^” (Bone, 2015)

How the values were obtained:
FPPS synthase assay [1] = substrate: C=C(C)CCO[P@@](=O)(O)OP(=O)(O)O; assay: FPPS synthase assay; assay type: biochemical, Homo sapiens; details: co-substrate GPP
Source text: (§1) FPPS synthase assay on human farnesyl pyrophosphate synthase (FPPS; wtFPPS)

FPPS synthase assay [2] = substrate: CC(C)=CCC/C(C)=C/COP(=O)(O)OP(=O)(O)O; assay: FPPS synthase assay; assay type: biochemical, Homo sapiens; details: co-substrate IPP
Source text: as §1

B1: human farnesyl pyrophosphate synthase (FPPS; wtFPPS) (Homo sapiens) (protein)
chain: MNGDQNSDVYAQEKQDFVQHFSQIVRVLTEDEMGHPEIGDAIARLKEVLEYNAIGGKYNRGLTVVVAFRELVEPRKQDADSLQRAWTVGWCVELLQAFFLVADDIMDSSLTRRGQICWYQKPGVGLDAINDANLLEACIYRLLKLYCREQPYYLNLIELFLQSSYQTEIGQTLDLLTAPQGNVDLVRFTEKRYKSIVKYKTAFYSFYLPIAAAMYMAGIDGEKEHANAKKILLEMGEFFQIQDDYLDLFGDPSVTGKIGTDIQDNKCSWLVVQCLQRATPEQYQILKENYGQKEAEKVARVKALYEELDLPAVFLQYEEDSYSHIMALIEQYAAPLPPAVFLGLARKIYKRRK
notes: recombinant, pET-28a based LIC vector; TEV protease-cleaved for crystals; homodimer of 42 kDa monomers
FPPS synthase assay [1]
  Km: 1.8 ± 0.3 µM
  kcat: 0.42 s⁻¹
  kcat/Km: 230000 M⁻¹ s⁻¹
FPPS synthase assay [2]
  Km: 2.1 ± 0.2 µM
  kcat: 0.42 s⁻¹
  kcat/Km: 200000 M⁻¹ s⁻¹
